Results as given in patent US9657059B2, “Immune system modulators” (Canimguide Therapeutics AB, priority 2013, dated 2017).

What was measured:
[1] = molecular target: P3028 (SEQ ID NO: 185) (Homo sapiens, UniProt P02768); test: PEPSCAN (rampo) ELISA: binding of His-tagged P3028 to P28R variants on chip; settings: truncations, deletions, glycine substitutions (FIG. 29, 30)
Protocol: Based on the structure of peptide P28R, additional peptides were identified that bind to P3028. The additional binders included deletions, truncations, and or amino acid substitutions of peptide P28R. Binding of peptides to P3028 was assayed using PEPSCAN technology. PEPSCAN technology, or “rampo” assays are biochemical binding assays, details of which are provided below:
A peptide microarray screening technology was used to measure binding of P28R (SEQ ID NO: 2) and variants of P28R to P3028 (SEQ ID NO: 185). In this technology libraries of synthetic peptides are synthesized and covalently linked onto polypropylene microarray chips. The linear peptides were synthesized onto credit-card format polypropylene cards (455 peptide formats/card) as described by (Timmerman et al., 2004) using standard Fmoc-chemistry using hexamethylenediamine (HMDA) as linker and deprotection using trifluoroacetic acid (TFA) with scavengers.
The binding of His-tagged P3028 to each peptide on the card was tested in an ELISA assay. The 455-well credit card format polypropylene cards containing the covalently linked peptides were incubated with His-tagged P3028 peptide (PGE73) solution consisting of 0.5 μg/mL diluted in blocking solution (4% horse serum, 5% ovalbumin (w/v) in PBS/1% TWEEN reagent). After washing, the peptides were incubated with a monoclonal mouse anti-His-tag antibody (Novagen, 70796-3, diluted 1/1000 in the incubation buffer) and subsequently after washing with a rabbit-anti-mouse antibody peroxidase (Rampo) conjugate (Southern Biotech, 6175-05, diluted 1/1000), for one hour at 25° C. After washing, the peroxidase substrate 2,2′-azine-di-3-ethylbenzthiazoline sulfonate (ABTS) and 2 μL of 3% H2O2 were added. The binding capacity of the mAb was measured as a color development at 405 nm (optical density, OD405). The color development was quantified with a charge-coupled device (CCD)—camera and an image processing system.
The OD405-values obtained by a CCD-camera was considered as raw data values (“rampo values,” “rampo units,” or “rampo scores”). The values mostly ranged from 0 to 3000, a log scale similar to 1 to 3 of a standard 96-well plate ELISA-reader. First the CCD-camera made a picture of the card before peroxidase coloring and then again a picture after the peroxidase coloring. […] These values were copied into an excel file and labeled as a raw data file. One follow-up manipulation was allowed. Sometimes a well can contain an air-bubble resulting in a false-positive value. If manual inspection of the cards detect an air-bubble the value are set to 0 for that well.
A library of peptides tested for binding to peptide P3028 included all substitutions for each position of the peptide P28R (SEQ ID NO: 2) (i.e., 19 substitutions for each position). The results of the binding experiments are shown in FIGS. 27, 28, 29 and 30 and Table 5.1. […] P28R had rampo values ranging between 262 and 460 with a mean value of 370. […] In addition, M and S in position 7 (SEQ ID NOs: 9 and 10, respectively), and Q and M in position 11 (SEQ ID NOs: 15 and 16, respectively) all have rampo values over 700.
For each position of P28R, the rampo scores of the group of 19 different peptides containing an L-amino acid substitution were compared to the rampo score of a control sample P28R peptide (SEQ ID NO: 2) for that group. Single-amino acid substitutions having a rampo score greater than or substantially equivalent to P28R were identified. […]

[2] = molecular target: P3028 (Homo sapiens, UniProt P02768); test: PEPSCAN rampo assay: binding of P3028 to support-bound peptides, sandwich ELISA; settings: binding of P3028 to peptide on solid phase
From the text: Based on the ability of P28R to bind the P3028 sequence/structure, unblock the LFA-1 receptor, and ameliorate the P3028 sequence/structure-dependent immunosuppression, P28R was used as a template compound to identify additional compounds that bind to and sequester P3028. Variants of the P28R structure were synthesized, and tested for the ability to bind P3028 using PEPSCAN technology (see Example 12). A library of peptides that include each genetically-coded amino acid substitution at each amino acid position of P28R (i.e., 19 substitutions for each position) was synthesized. Each peptide was affixed to a support pin, and the peptide library was incubated with P3028. The binding of the candidate inhibitors to P3028 was detected by a sandwich ELISA, where a rabbit anti-mouse peroxidase (rampo) secondary antibody was employed (see Example 12). The binding of each peptide was then assigned a rampo score (see FIG. 27). Peptide P28R had rampo values ranging between about 262 and 460 with a mean value of 370. In some embodiments, the immunoregulatory peptide inhibitor as disclosed herein, is selected for a desired P3028 binding rampo score. In some embodiments, the desired P3028 binding rampo score is greater than or equal to the rampo score of P28R. It is also contemplated that some peptides that bind to P3028 with less affinity than P28R have therapeutic application. Some peptides with binding affinities that are less than P28R, for example, may modulate signal transduction events differently than P28R by virtue of the fact that the affinity to P3028 is less. […] Accordingly, contemplated embodiments include peptides that bind with any affinity to P3028 (e.g., any one or more of the peptides provided in Table 5.1, preferably peptides that modulate the immune system (e.g., modulate, upregulate or down regulate a marker of the immune system or immunosuppression, such as reducing a P3028-mediated inhibition of immune cell proliferation, spreading, migration, or NK-cell cytotoxicity).
It is contemplated that inhibitors of any one or more of the peptides listed in Tables 1-4 can comprise modifications of the P28R (SEQ ID NO: 2) or P28 core (SEQ ID NO: 62) sequence, and further can be useful for reducing inhibition of the LFA-1 receptor, or for stimulating immune cells. To identify modification to inhibitor peptides in accordance with some embodiments herein, positional scan data was used to study the influence of substitution of different types of amino acids in each position of P28R (SEQ ID NO: 2) on the binding of P3028 (SEQ ID NO: 185). Each amino acid in the peptide sequence of P28R (SEQ ID NO: 2) was exchanged with all of the naturally occurring amino acids, and binding of P3028 (SEQ ID NO: 185) to each peptide on a solid phase chip was assessed (see, e.g. Example 36). A number of optional modifications to P28R in accordance with embodiments herein are summarized in Tables 5.3, 5.4, 5.5, 5.6, and 13. Optionally, an inhibitor peptide in accordance with some embodiments herein can comprise one or more of the modifications of Table 5.3 or Table 13. Optionally, an inhibitor peptide comprises a central core of positions 2, 5-11, and 15 as provided in Table 5.3, and the remaining position are omitted or substituted with substantially any amino acid. Optionally, an inhibitor peptide comprises a central core of positions K2, T5-S11, and E15 of SEQ ID NO: 2, and the remaining position are omitted or substituted with substantially any amino acid.
Embodiments of the invention also include immunoregulatory peptide inhibitors that have a specific affinity to P3028 sequences or structures. In some embodiments, the immunoregulatory peptide inhibitors have specific affinity to P3028 sequences or structures as measured by a rampo assay in which the immunoregulatory peptide inhibitors are affixed to a solid phase, P3028 is added, and the enzymatic activity of a rampo secondary antibody is measured so as to detect binding (see Example 12). […]

[3] = system: PBMCs from a healthy control; test: PBMC activation (CD69, CD71) by flow cytometry in RPMI plus 10% human AB serum; type: cell-based; settings: 40 μg/mL; 24 hours
Protocol: FIG. 41 is a series of graphs illustrating effects of modified peptides on activation of PBMCs from healthy control person. PBMCs were incubated with the peptides (40 μg/mL) for 24 hours in RPMI plus 10% human AB serum. Activation is determined as percentage of cells with enhanced marker CD69 using flow cytometry. FIG. 41A illustrates results of two experiments (410 and 412) performed for each peptide. FIG. 41B illustrates results of two experiments (414 and 416) performed for each peptide.
FIG. 42 is a series of graphs illustrating effects of the full length peptide P28R and the 6 amino acid central sequence (32230, FFVKLS, SEQ ID NO: 62) in culture medium containing normal human AB serum. Activation is determined as percentage of cells with enhanced marker CD69 or CD71 using flow cytometry. PBMCs were incubated with the peptides (40 μg/mL) for 24 hours in RPMI plus 10% human AB serum. FIG. 42A illustrates the results of two experiments (420 and 422) performed for each peptide. FIG. 42B illustrates the results of two experiments (424 and 426) performed for each peptide.
FIG. 46 is a series of graphs illustrating Effect of modified peptides on activation of PBMCs from healthy control person. […] PBMCs were incubated with the peptides (40 μg/mL) for 48 hours in RPMI plus 10% human AB serum.
Based on the positional scan data, it is contemplated that substitutions of SEQ ID NO: 2 can be useful in accordance with some embodiments herein for binding P3028, de-blocking the LFA-1 receptor from P3028-mediated inhibition (e.g. displacing bound P3028 peptide and P3028-structure containing molecules from the LFA-1 receptor), and/or stimulating immune cells. The activity of peptide P28R (SEQ ID NO: 2) and modifications of P28R was studied in a human ex vivo model using PBMCs from a healthy control human in short term cultures, and with PBMC activation measured as a percentage of cells with enhanced CD69 (see Example 37).
As P28R (SEQ ID NO: 2) can bind to P3028 and stimulate PBMC's from healthy controls in short term cultures, for example when in a culture medium comprising RPMI plus 10% normal human AB serum (see Example 37), it is contemplated that truncations of P28R in accordance with some embodiments herein can be useful for binding to inhibitors of any one or more of the peptides listed in Tables 1-4. Truncations of P28R were assessed for their ability to activate PBMC's (see Example 38). PBMCs were incubated with the peptides (40 μg/mL) for 24 hours in RPMI plus 10% human AB serum. PBMC activation was measured as percent cells with enhanced expression of either CD69 (FIG. 42A) or CD71 (FIG. 42B) using flow cytometry. […] However, PBMCs were also incubated with the peptides in cancer sera from dogs, or in caner sera from human cancer patients (see FIG. 43). […] As such, it is contemplated that in accordance with some embodiments herein, P28R, P28 core, or combinations of these peptides are useful for stimulating immune cells in the serum of a subject that has cancer.
Effects of modified peptides on the activation of PBMCs from a healthy control person were assessed (see Example 41). PBMCs were incubated with the peptides (40 μg/mL) for 48 hours in RPMI plus 10% human AB serum, and PBMC activation was determined by flow cytometry based on the percentage of cells with enhanced marker CD69 or CD71. Peptides P28R (SEQ ID NO: 2), P28 core (peptide 32230) (SEQ ID NO: 62), 32251 ([…]) (SEQ ID NO: 592), 32814 ([…]) (SEQ ID NO: 586), 32815 ([…]) (SEQ ID NO: 595), 32665 ([…]) (SEQ ID NO: 593), and 32819 ([…](C(PEG24))) (SEQ ID NO: 594) were tested. […] Accordingly, it is contemplated herein that

| Substance | RAMPO Score [2] | also measured |
| --- | --- | --- |
| KKLDTFVKLSLFTER [SEQ ID NO: 65] | – | rampo score / binding to P3028 compared with P28R [1]: comparable to, or higher than peptide P28R |
| KKLDTFFVKLSFTER [SEQ ID NO: 68] | – | rampo score / binding to P3028 compared with P28R [1]: comparable to, or higher than peptide P28R |
| KSLDTFFVKLSLFTER [compound 30864] | – | PBMC activation, cells with enhanced CD69 [3]: did not stimulate |
| KKLDTFFVDLSLFTER [compound 31138] | – | PBMC activation, cells with enhanced CD69 [3]: did not stimulate |
| KKLDTFFVKLSLFTFR [compound 30685] | – | PBMC activation, cells with enhanced CD69 [3]: did not stimulate |
| 400 (KKLDTFFVKLSLFTER) [compound 400] | 437 | – |
| 398 (KKLDTFFVKLSLFTER) [compound 398] | 445 | – |
| KKFFVKLSLFTER [SEQ ID NO: 76] | – | rampo score / binding to P3028 compared with P28R [1]: comparable to, or higher than peptide P28R |
| KKLDTFFVNLSLFTER [compound 31136] | – | PBMC activation, cells with enhanced CD69 [3]: did not stimulate |
| 399 (KKLDTFFVKLSLFTER) [compound 399] | 442 | – |
| 406 (KKLDTFFVKLSLFTER) [compound 406] | 424 | – |
| 396 (KKLDTFFVKLSLFTER) [compound 396] | 460 | – |
| 403 (KKLDTFFVKLSLFTER) [compound 403] | 428 | – |

Further lines, with some results ahead:

| RAMPO Score [2] | Substance | also measured |
| --- | --- | --- |
| 375 | 428 (KKLDTFFVKLSLFTER) [compound 428] | – |
| 308 | 487 (KKLDTFFVKLSLFTER) [compound 487] | – |
| 402 | 414 (KKLDTFFVKLSLFTER) [compound 414] | – |
| 414 | 408 (KKLDTFFVKLSLFTER) [compound 408] | – |
| 260 | 516 (KKLDTFFVKLSLFTER) [compound 516] | – |
| 319 | 476 (KKLDTFFVKLSLFTER) [compound 476] | – |
| 348 | 442 (KKLDTFFVKLSLFTER) [compound 442] | – |
| 377 | 427 (KKLDTFFVKLSLFTER) [compound 427] | – |
| 371 | 430 (KKLDTFFVKLSLFTER) [compound 430] | – |
